Reference: the supplement of paper PMC10126150
± gives the standard deviation of the averaged measurements.

System: ATP
Test: switch fluorescence ratio, 500 uM ATP over buffer (Cy3 cluster intensity, sum of 5 cycles each) (fold (ratio)); higher = stronger signal-on switching upon ATP binding; sequences stand for … in TCGTCGGCAGCGTCAGATGTGTATAAGAGACAGTTTTTTTTTTTTTTTTTTTTTTTTT…TC
Details: aptamer strand: ATP DNA aptamer (quencher-CACCTGGGGGAGTATTGCGGAGGAAGG + anchor), 100 nM annealed; ATP concentration: 500 uM
In short: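 For every switch-domain sequence, the fluorescence ratio is the mean of per-cluster values, each being summed target-cycle Cy3 intensity over summed buffer-cycle Cy3 intensity. Clusters outside 100-1000 RFU were excluded. On a modified Illumina MiSeq flow-cell, the Cy3-labelled switching-strand clusters were annealed to 100 nM quencher-labelled ATP aptamer, imaged in selection buffer and then after 15 min with 500 uM ATP at 22 °C. Five such cycles were run, with NaOH stripping and re-annealing between them.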
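Also: ATP exposure 15 min at 22 °C before imaging.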

Sequence | switch fluorescence ratio
GCTTCAGGGA | 1.02 ± 0.019
AGCTTTATTA | 0.9984 ± 0.0032
AATGGCGGGC | 1.01 ± 0.029
TGCATTTTAC | 1.28 ± 0.082
ACGATAGGTA | 1.06 ± 0.026
GGTGCCGGGG | 1.02 ± 0.042
ATTGAAAGAG | 1.21 ± 0.28
TCACTGGGTT | 1.01 ± 0.068
GTGTCAACTA | 0.987 ± 0.016
GGGTAAATCG | 0.981 ± 0.068
AGTTGTTTTG | 0.998 ± 0.015
GCGGTTTAAG | 1 ± 0.013
ATTACGTGTA | 1.012 ± 0.0039
GGGGGTTCGT | 0.98 ± 0.036
TAGGCATTTG | 1.006 ± 0.0069
AAAATTGGGA | 1.01 ± 0.035
CTTTCAAGGT | 1.006 ± 0.0032
TGGATGTGGG | 1.03 ± 0.031
TAATGGGGGA | 1.01 ± 0.016
TTTGCTTATG | 0.9924 ± 0.0045
TTTTAAGCCG | 1.01 ± 0.069
TTAGGGAA | 1.01 ± 0.023
GGAGGGCTTT | 0.956 ± 0.064

Sequence | switch fluorescence ratio
GGAGACATGT | 1.006 ± 0.0022
TATTTGAATG | 1.01 ± 0.028
TTTATGGATC | 1.01 ± 0.05
TAAAGGGATT | 0.994 ± 0.032
TTGATATATA | 0.974 ± 0.018
GCGCTGTGTG | 1 ± 0.041
GAGGTTTAGG | 0.986 ± 0.042
AAAATGGTAA | 1.001 ± 0.0057
GGTTAAGTCT | 0.946 ± 0.053
CATGTAGTGC | 1.03 ± 0.089
GAAGTACCTT | 1.2 ± 0.044
AAGGGGGATG | 1.01 ± 0.035
GAAAAAGTCA | 1.01 ± 0.023
TATGGGGCAA | 1.091 ± 0.0015
TCCGTCAGCA | 4.04 ± 0.52
TTTTGTGGGT | 0.986 ± 0.022
TGCTGCGGCT | 1.01 ± 0.019
GATGGATTTG | 1.02 ± 0.033
AATTAAAGGG | 1.03 ± 0.066
TTTTGAATTA | 1.01 ± 0.032
CGAATTAATT | 0.96152 ± 0.00065
GAATAAGATT | 1.01 ± 0.061
TTGGGGGCCT | 1.04 ± 0.06

Sequence | switch fluorescence ratio
GATAAATTTT | 0.974 ± 0.023
CCGTAATATT | 3.69 ± 1.8
GCAGAAGGTA | 1.01 ± 0.029
AGTGGGGTTA | 0.999 ± 0.04
TCCTGTTTTT | 1.01 ± 0.056
GGAAGCGACA | 0.988 ± 0.037
TTTTGTAGTG | 0.988 ± 0.042
ATCGGTGGTG | 0.9839 ± 0.0058
CTCTATATTG | 1.008 ± 0.0073
TTTCGTGGGT | 0.9863 ± 0.006
AAAGGGCTGT | 1.01 ± 0.043
CTCTTGTATC | 1.05 ± 0.063
GCAGGGGCTG | 1.02 ± 0.016
TGGTTTTCGC | 0.975 ± 0.023
TGCCTAAAGT | 0.976 ± 0.016
ATAGTAGGTA | 0.99137 ± 0.00055
ATATTTACGG | 1.079 ± 0.0071
GGGGTCTGCG | 1.03 ± 0.059
ACGCAGTATA | 1.05 ± 0.013
AAGGGGTTT | 1.03 ± 0.065
AGTTTAGAAT | 1.001 ± 0.0052
GCGGGTTTTC | 1.03 ± 0.017
ATGCTCTTAT | 1 ± 0.012

Sequence | switch fluorescence ratio
CATCGGAGGG | 1.02 ± 0.029
ATATCGTTGA | 0.978 ± 0.021
ATCAGCGATC | 2.24 ± 0.22
CACGTTCAGC | 1.04 ± 0.035
AAGTTTTATT | 0.992 ± 0.043
ATTTGGGCCA | 1.02 ± 0.022
TTCTCGTACA | 1.19 ± 0.29
GATTTTTAGG | 0.964 ± 0.015
GATTCAAACG | 1.006 ± 0.0073
TAGAAAAGAG | 1.01 ± 0.024
CTTTGATTTT | 1.01 ± 0.019
GGGTTGCAGC | 0.992 ± 0.032
GCGAGAACTA | 0.967 ± 0.024
CGGGACCGGC | 1.04 ± 0.13
ACGGGTGAGC | 1.09 ± 0.011
GAGAAAGTTC | 1.06 ± 0.038
AACGATTGGC | 1.08 ± 0.018
TGAGGATATA | 0.9887 ± 0.0059
TTTGGGGATT | 1.01 ± 0.036
CCAGTGGTTT | 1.01 ± 0.012
TATGTTGTAC | 1.052 ± 0.0086
TTTAAGACAA | 0.9892 ± 0.0025
ATGGTCCGAG | 0.998 ± 0.018

Sequence | switch fluorescence ratio
AATCATCGGT | 0.999 ± 0.027
TGAAGGGGTA | 1.01 ± 0.059
GAGAGGATAG | 0.98157 ± 0.0003
GGGGGCTAAA | 1.02 ± 0.017
TAGTGAAAGA | 0.9855 ± 0.0031
CGGTGAGTGT | 0.9608 ± 0.0063
GGGTTAATGC | 1.03 ± 0.047
CGGTCTATGC | 1.12 ± 0.035
CTTAGCCTCA | 0.981 ± 0.034
AGGTGGAAAC | 1.01 ± 0.048
AATCAAACTA | 1.05 ± 0.028
GGGACCCAAG | 1.02 ± 0.046
ATGATATGGT | 0.983 ± 0.029
GTGGTATGGT | 1.02 ± 0.025
GAGTGCGGGC | 1.07 ± 0.068
CCTAAGGGGG | 1.04 ± 0.074
GTGGTTAGGT | 1 ± 0.034
GGCGCATGTC | 1.14 ± 0.029
TTTCATACTC | 1.29 ± 0.21
TCTTACTGGG | 0.997 ± 0.018
TCCTGGGCTA | 1.57 ± 0.019
GGGTTAACCT | 1.06 ± 0.075
TTGCCTGTGT | 1.039 ± 0.0012

Sequence | switch fluorescence ratio
TCGGGGCCAA | 0.991 ± 0.019
CTTAATGGGG | 0.973 ± 0.024
TGAGGTACTA | 0.999 ± 0.053
ATTGAAAGGC | 1.29 ± 0.42
CCCTCCTTG | 1.0791 ± 6.3e-05
TATTTGGAAA | 0.991 ± 0.036
CTTTTCTTAA | 0.996 ± 0.0011
GTGGGGGCTT | 0.947 ± 0.021
TAGGTAACCG | 0.943 ± 0.056
GGCAGGGGAA | 1.01 ± 0.012
GTTTATGGAC | 1.02 ± 0.011
GGGTCTAGAG | 1.0295 ± 0.00078
ATAGAATGTG | 1.007 ± 0.0082
TTATGAAAGG | 0.968 ± 0.03
CATGATAAT | 0.998 ± 0.022
TATATTCAGT | 1.02 ± 0.0099
TATATTTGTA | 0.979 ± 0.024
TTTGGGAATG | 1.06 ± 0.13
TGTATAAAGG | 1.009 ± 0.0069
TGTTAGCCTT | 1.04 ± 0.017
TTCTTTGAAT | 1.036 ± 0.0013
TTGACGTGTG | 0.961 ± 0.01
TTTCACGCGC | 1.03 ± 0.016

Sequence | switch fluorescence ratio
ATCGCCTTGC | 1.163 ± 0.001
TTCATTTGGT | 0.983 ± 0.025
CTGCGACTGT | 1.026 ± 0.0099
ACCTCCCGGG | 1.13 ± 0.17
CGGGGGCTCG | 0.989 ± 0.069
GAGTAAGAGT | 1.0175 ± 0.00091
TTCAGATGGG | 0.972 ± 0.01
AAAAACGTAT | 1.03 ± 0.04
ACCGGGAGAT | 0.994 ± 0.042
TTCAAAAGGG | 1.05 ± 0.052
TTAGAAACGC | 1.02 ± 0.04
TGTTTTGACG | 1.07 ± 0.085
AAGTGTGGGC | 0.984 ± 0.023
TCCGAGTATG | 1.08 ± 0.027
TACTAGTTGG | 0.997 ± 0.011
TTTATATTAG | 0.9889 ± 0.0075
ATTTAGTTGT | 1.03 ± 0.03
AATAGGACAA | 0.982 ± 0.037
CTACATGAAA | 1.006 ± 0.0034
